US20230227838A1, “ENHANCED CELL SURVIVAL AGAINST BIOTIC AND ABIOTIC STRESSES THROUGH SALICYLICK ACID-INDUCED NPR1 CONDENSATES” (priority 2020, published 2023)

B1: HDA15, histone deacetylase 15 (protein, UniProt Q8GXJ1 1-552, looked up)
Histone deacetylase 15: MVVETIERSCEGSKRRHVNGGDIAVPCSGEECSNGDINVAPGVSAKRARVSREMTFEDIYGADALLNDDDDEDDDCDWEPVQAPMEFVKWCCVNCTMSNPGDMVHCCICGEHKESGILRHGYLASPFFKDTGLIEVEEKYGGSSSATSSTAVGFDERMLLHSEFEVKAQPHPERPDRLRAIAASLATAGVFPGRCLPINAREITKQELQMVHTSEHVDAVDTTSQLLYSYFTSDTYANEYSARAARLAAGLCADLATDIFTGRVKNGFALVRPPGHHAGVRHAMGFCLHNNAAVAALVAQAAGAKKVLIVDWDVHHGNGTQEIFEQNKSVLYISLHRHEGGNFYPGTGAADEVGSNGGEGYCVNVPWSCGGVGDKDYIFAFQHVVLPIASAFSPDFVIISAGFDAARGDPLGCCDVTPAGYSRMTQMLGDLCGGKMLVILEGGYNLRSISASATAVIKVLLGENPENELPIATTPSVAGLQTVLDVLNIQLEFWPSLAISYSKLLSELEARLIENKKNQMKRKVVRVPTWWKWGRKKLLYNFLSARMISRSK

Target: sim3-GFP (Arabidopsis thaliana) (UniProt P93002)
Sequence (P93002 other isoform, or with tags, fused parts or gaps): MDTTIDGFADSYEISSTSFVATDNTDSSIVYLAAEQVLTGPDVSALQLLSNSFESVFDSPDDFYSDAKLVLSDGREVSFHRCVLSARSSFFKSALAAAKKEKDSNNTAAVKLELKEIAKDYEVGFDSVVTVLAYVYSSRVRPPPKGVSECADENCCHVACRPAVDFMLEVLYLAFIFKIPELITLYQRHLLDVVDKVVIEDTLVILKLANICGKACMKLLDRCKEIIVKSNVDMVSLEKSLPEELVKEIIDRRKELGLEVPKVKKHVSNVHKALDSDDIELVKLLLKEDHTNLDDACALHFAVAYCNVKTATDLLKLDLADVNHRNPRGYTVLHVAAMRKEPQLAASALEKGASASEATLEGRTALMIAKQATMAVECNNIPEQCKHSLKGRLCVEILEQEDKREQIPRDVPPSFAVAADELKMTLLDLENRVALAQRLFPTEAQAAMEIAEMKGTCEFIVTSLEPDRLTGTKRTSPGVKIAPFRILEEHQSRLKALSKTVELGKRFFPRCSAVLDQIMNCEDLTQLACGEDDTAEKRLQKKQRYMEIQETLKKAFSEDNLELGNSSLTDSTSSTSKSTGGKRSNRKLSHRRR
Assay: sim3-GFP IP, LC-MS/MS

Normalized Fold Change: SA vs Mock [fold]	Molecule
709	SIRANBP, Pleckstrin homology (PH) domain superfamily protein
3.14	RD19A, Papain family cysteine protease
2.58	GSTU19, glutathione S-transferase TAU 19 (from UniProt Q9ZRW8 1-219)
2.2	ATSPS4F, Sucrose-phosphate synthase family protein
3.65	PR1, pathogenesis-related gene 1 (from UniProt P33154 27-161)
3.32	UBA1, ubiquitin-activating enzyme 1 (from UniProt P93028 1-1080)
3.18	EDS1, enhanced disease susceptability
1620	DDB1B, damaged DNA binding protein 1B (from UniProt O49552 1-1088)
5.75	ROC3, rotamase CYP 3
5.9	PRH75, DEAD box RNA helicase (PRH75)
86.4	GDH1, glutamate dehydrogenase 1
4110	OPR1, 12-oxophytodienoate reductase 1
2.22	EDA10
2.75	FUS11, Proteasome component (PCI) domain protein
3.61	TOC86, translocon at the outer envelope membrane of chloroplasts 159
3.96	CAM7, calmodulin 7 (from UniProt P59220 1-149)
9.62	P-loop containing nucleoside triphosphate hydrolases superfamily protein (AT3G28540)
14.3	NRP1, nodulin-related protein 1
2180	RNR1, ribonucleotide reductase 1
5.46	NAD(P)-binding Rossmann-fold superfamily protein (AT4G13180)
3.15	CTF2B, FAD/NAD(P)-binding oxidoreductase family protein
3.96	PLP2, phospholipase A 2A
2.26	Transducin/WD40 repeat-like superfamily protein (AT3G15610)
2.93	SOUL-1, SOUL heme-binding family protein
4790	P-loop containing nucleoside triphosphate hydrolases superfamily protein (AT5G17760)
3.34	TTG1, Transducin/WD40 repeat-like superfamily protein (from UniProt Q9XGN1 1-341)

Normalized Fold Change: SA vs Mock [fold]	Molecule
6.35	P-loop containing nucleoside triphosphate hydrolases superfamily protein (AT3G28510)
3.16	Fes1A
16.7	NPR2, NPR1-like protein 2 (from UniProt Q9SZI3 1-600)
2.83	PCNA2, proliferating cell nuclear antigen 2
2.09	IMPA1, importin alpha isoform 1
2.52	DDB1A, damaged DNA binding protein 1A (from UniProt Q9M0V3 1-1088)
50.1	SQE3, squalene epoxidase 3
9.76	TOC34, translocon at the outer envelope membrane of chloroplasts 34
2.24	PTEN 2
3.1	EDA39, calmodulin-binding family protein
40	NAD(P)-binding Rossmann-fold superfamily protein (AT2G29320)
2.8	CYP51, CYTOCHROME P450 51G1
2.16	EFE, ethylene-forming enzyme
4.35	AT3G53470
4.08	SAG2, aleurain-like protease
5.17	Disease resistance protein (TIR-NBS-LRR class) (AT4G19510)
2.01	GSTF6, glutathione S-transferase 6 (from UniProt P42760 1-208)
10.5	AOAT2, GGT2, alanine-2-oxoglutarate aminotransferase 2
8.65	AGD5, NEV, ARF-GAP domain 5
5.26	ATCNX1, CNX1, calnexin 1
3320	CER3, FLP1, WAX2, YRE, Fatty acid hydroxylase superfamily
4.72	HSP70, heat shock protein 70
6.26	Disease resistance protein (TIR-NBS class) (AT1G66090)
5.05	Leucine-rich repeat (LRR) family protein (AT5G45510)
2.33	ATM1, myosin 1
16	BCS1, cytochrome BC1 synthesis

Normalized Fold Change: SA vs Mock [fold]	Molecule
9.4	NPR3, NPR1-like protein 3 (from UniProt Q8L746 1-586)
2.5	ERF1-2, eukaryotic release factor 1-2
3.23	ATPAD4, PAD4, alpha/beta-Hydrolases superfamily protein (from UniProt Q9S745 1-541)
2.42	ATR4, CYP83B1, RED1, RNT1, SUR2, cytochrome P450, family 83, subfamily B, polypeptide 1 (from UniProt O65782 1-499)
2.24	S-adenosyl-L-methionine-dependent methyltransferases superfamily protein (AT1G55450)
7.18	RNA helicase family protein (AT3G62310)
2.86	RHD3, Root hair defective 3 GTP-binding protein (RHD3)
7.6	Disease resistance protein (TIR-NBS class) (AT3G04210)
2270	Leucine-rich repeat (LRR) family protein (AT5G45520)
703	AT3G47630
42.1	CAND1, cullin-associated and neddylation dissociated (from UniProt Q8L5Y6 2-1219)
1960	RNA helicase family protein (AT1G27900)
5810	SCPL27, serine carboxypeptidase-like 27
3.44	S-adenosyl-L-methionine-dependent methyltransferases superfamily protein (AT2G32160)
2.04	UBQ6, ubiquitin 6
3400	Transducin/WD40 repeat-like superfamily protein (AT3G50590)
8.98	WAK4, wall associated kinase 4
3.67	Transducin/WD40 repeat-like superfamily protein (AT3G45620)
14.6	PAD3, Cytochrome P450 superfamily protein (from UniProt Q9LW27 1-490)
7.17	P-loop containing nucleoside triphosphate hydrolases superfamily protein (AT2G28620)
2100	TPS10, trehalose phosphate synthase
10.2	Disease resistance protein (TIR-NBS-LRR class) (AT5G41750)
9.82	FAD/NAD(P)-binding oxidoreductase family protein (AT5G22140)
2.75	ATMDAR2, Pyridine nucleotide-disulphide oxidoreductase family protein
2570	B1
